Square brackets hold non-standard residues; d marks the D form. Peptide text beside a SMILES is read from it. Ala(1H-tetrazol-5-yl) = N[C@@H](Cc1nnn[nH]1)C(=O)O
T1: VPAC1 receptor (UniProt P32241 31-457, limits assumed)
T1 sequence (looked up): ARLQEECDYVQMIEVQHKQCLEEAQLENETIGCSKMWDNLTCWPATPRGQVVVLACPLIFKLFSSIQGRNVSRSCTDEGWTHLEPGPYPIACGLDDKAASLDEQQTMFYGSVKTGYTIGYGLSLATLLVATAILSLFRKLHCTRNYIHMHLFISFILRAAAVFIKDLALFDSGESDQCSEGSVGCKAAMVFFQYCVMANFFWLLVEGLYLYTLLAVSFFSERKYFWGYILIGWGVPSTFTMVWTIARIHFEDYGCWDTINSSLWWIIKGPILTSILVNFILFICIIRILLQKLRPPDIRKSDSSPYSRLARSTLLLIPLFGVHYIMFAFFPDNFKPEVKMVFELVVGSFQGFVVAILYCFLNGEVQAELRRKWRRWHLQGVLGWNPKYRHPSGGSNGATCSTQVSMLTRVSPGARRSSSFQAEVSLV

T2: PAC1 receptor (UniProt P41586 21-468, limits assumed)
T2 sequence (looked up): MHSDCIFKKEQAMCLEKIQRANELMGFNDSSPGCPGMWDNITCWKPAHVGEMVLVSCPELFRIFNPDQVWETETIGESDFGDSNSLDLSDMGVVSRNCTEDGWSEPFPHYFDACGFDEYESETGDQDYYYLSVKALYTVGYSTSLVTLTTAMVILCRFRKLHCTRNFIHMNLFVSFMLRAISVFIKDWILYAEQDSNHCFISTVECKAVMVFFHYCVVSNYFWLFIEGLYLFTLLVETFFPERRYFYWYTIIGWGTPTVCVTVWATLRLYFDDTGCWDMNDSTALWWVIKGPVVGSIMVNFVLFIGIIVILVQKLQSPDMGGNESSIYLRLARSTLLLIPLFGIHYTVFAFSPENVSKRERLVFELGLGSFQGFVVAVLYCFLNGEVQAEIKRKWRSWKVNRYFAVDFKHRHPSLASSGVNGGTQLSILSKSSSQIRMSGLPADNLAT


Columns and labels:
[1] = Peptide stability test, Tris buffer (pH 7.0), 60° C. storage, HPLC remaining rate; assay type: physicochemical; conditions: Table 7-2; 100 μM in Tris buffer pH 7.0
Experimental: Peptides 1, 2 and 6 to 9 synthesized in Example 2 were weighed and dissolved in Tris buffer (pH 7.0) to prepare 1.0 mM peptide solutions. Each solution was filtered with a Chromatdisk (product of Merck Millipore, Millex-GV, 0.22 μm). The filtrate was diluted to 100 μM with Tris buffer (pH 7.0) and dispensed into a tube (Protein LoBind Tube by Eppendorf Co.). The prepared peptide solutions were incubated for 1 week or 2 weeks in a 60° C. thermostatic bath to obtain stored samples. A simultaneously prepared sample among the peptide solutions that was not stored was used as a standard sample (initial sample). The standard sample and the stored samples were stored at −30° C. until sample analysis. Each stored sample was measured under the following HPLC analysis conditions 2, and the remaining rate after correction for water for each peptide among the stored samples was calculated in the same manner as Example 3. Guard column: XSelect CSH C18 by Waters Co., 5 μm, 4.6×20 mm Guard Cartridge Detection wavelength: 220 nm Mobile phase A: 0.1% formic acid aqueous solution Mobile phase B: 0.1% acetonitrile formate solution Measuring time: 20 minutes Measuring sample injection rate: 50 μL Flow rate: 1.0 mL/min Column temperature: 40° C. Sample cooler: 25° C. Mobile phase delivery: The mixing ratio of mobile phase A and mobile phase B was varied as shown in Table 5 for linear concentration gradient control. Peptides 12 to 25, 27 and 28 synthesized in Example 2 were weighed and dissolved in Tris buffer (pH 7.0) to prepare 1.0 mM peptide solutions. Each solution was filtered with a Chromatdisk (product of Merck Millipore, Millex-GV, 0.22 μm). The filtrate was diluted to 100 μM with Tris buffer (pH 7.0) and dispensed into a tube (Protein LoBind Tube by Eppendorf Co.). The prepared peptide solutions were incubated for one week or 2 weeks in a 60° C. thermostatic bath to obtain stored samples. A simultaneously prepared sample among the peptide solutions that was not stored was used as a standard sample (initial sample). The standard sample and the stored samples were stored at −30° C. until sample analysis. The remaining rate after correction for water for each peptide among the stored samples was calculated in the same manner as Example 4, and the results are shown in Table 7. Peptides 29 to 34 synthesized in Example 2 were weighed and dissolved in Tris buffer (pH 7.0) to prepare 1.0 mM peptide solutions. Each solution was filtered with a Chromatdisk (product of Merck Millipore, Millex-GV, 0.22 μm). The filtrate was diluted to 100 μM with Tris buffer (pH 7.0) and dispensed into a tube (Protein LoBind Tube by Eppendorf Co.). The prepared peptide solutions were incubated for 2 weeks in a 60° C. thermostatic bath to obtain stored samples. A simultaneously prepared sample among the peptide solutions that was not stored was used as a standard sample (initial sample). The standard sample and the stored samples were stored at −30° C. until sample analysis. The remaining rate after correction for water for each peptide among the stored samples was calculated in the same manner as Example 4, and the results are shown in Table 7-2. Peptide 26 synthesized in Example 2 was weighed and dissolved in Tris buffer (pH 7.0) to prepare a 1.0 mM peptide solution. The solution was filtered with a Chromatdisk (product of Merck Millipore, Millex-GV, 0.22 μm). The filtrate was diluted to 100 μM with Tris buffer (pH 7.0) and dispensed into a tube (Protein LoBind Tube by Eppendorf Co.). The prepared peptide solution was incubated for one week or 2 weeks in a 60° C. thermostatic bath to obtain stored samples. A simultaneously prepared sample among the peptide solutions that was not stored was used as a standard sample (initial sample). The standard sample and the stored sample were stored at −30° C. until sample analysis. […]

VPAC1 receptor = molecular target: T1, VPAC1 receptor; assay: cell-based or functional assay
PAC1 receptor = molecular target: T2, PAC1 receptor; assay: cell-based or functional assay

remaining rate after correction for water, 60° C., 2 weeks preservation [1] [%]	EC50 (VPAC1R), cAMP inducing effect (VPAC1 receptor) [nM]	EC50 (PAC1R), cAMP inducing effect (PAC1 receptor) [nM]	Molecule
88.7	–	–	CC[C@H](C)[C@H](NC(=O)[C@H](C)NC(=O)[C@H](Cc1nnn[nH]1)NC(=O)[C@H](CO)NC(=O)[C@H](Cc1c[nH]cn1)NC(C)=O)C(=O)N[C@@H](Cc1ccccc1)C(=O)N[C@H](C(=O)N[C@@H](Cc1nnn[nH]1)C(=O)N[C@@H](CO)C(=O)N[C@@H](Cc1ccc(O)cc1)C(=O)N[C@@H](CO)C(=O)N[C@@H](CCCNC(=N)N)C(=O)N[C@@H](Cc1ccc(O)cc1)C(=O)N[C@@H](CCCNC(=N)N)C(=O)N[C@@H](CCCCN)C(=O)N[C@@H](CCC(N)=O)C(=O)N[C@@H](C)C(=O)N[C@@H](C)C(=O)N[C@H](C(=O)N[C@@H](CCCCN)C(=O)N[C@@H](CCCCN)C(=O)N[C@@H](Cc1ccc(O)cc1)C(=O)N[C@@H](CC(C)C)C(=O)N[C@@H](C)C(=O)N[C@@H](C)C(=O)N[C@H](C(=O)N[C@@H](CC(C)C)C(N)=O)C(C)C)C(C)C)[C@@H](C)O [Peptide 32] (Ac-HS[Ala(1H-tetrazol-5-yl)]AIFT[Ala(1H-tetrazol-5-yl)]SYSRYRKQAAVKKYLAAVL-NH2)
85.3	–	–	CC[C@H](C)[C@H](NC(=O)[C@H](C)NC(=O)[C@H](Cc1nnn[nH]1)NC(=O)[C@H](C)NC(=O)[C@H](Cc1c[nH]cn1)NC(C)=O)C(=O)N[C@@H](Cc1ccccc1)C(=O)N[C@H](C(=O)N[C@@H](Cc1nnn[nH]1)C(=O)N[C@@H](CO)C(=O)N[C@@H](Cc1ccc(O)cc1)C(=O)N[C@@H](CO)C(=O)N[C@@H](CCCNC(=N)N)C(=O)N[C@@H](Cc1ccc(O)cc1)C(=O)N[C@@H](CCCNC(=N)N)C(=O)N[C@@H](CCCCN)C(=O)N[C@@H](CCC(N)=O)C(=O)N[C@@H](C)C(=O)N[C@@H](C)C(=O)N[C@H](C(=O)N[C@@H](CCCCN)C(=O)N[C@@H](CCCCN)C(=O)N[C@@H](Cc1ccc(O)cc1)C(=O)N[C@@H](CC(C)C)C(=O)N[C@@H](C)C(=O)N[C@@H](C)C(=O)N[C@H](C(=O)N[C@@H](CC(C)C)C(N)=O)C(C)C)C(C)C)[C@@H](C)O [Peptide 33] (Ac-HA[Ala(1H-tetrazol-5-yl)]AIFT[Ala(1H-tetrazol-5-yl)]SYSRYRKQAAVKKYLAAVL-NH2)
96.9	–	–	CC[C@H](C)[C@H](NC(=O)[C@H](C)NC(=O)[C@H](Cc1nnn[nH]1)NC(=O)[C@H](CO)NC(=O)[C@H](Cc1c[nH]cn1)NC(C)=O)C(=O)N[C@@H](Cc1ccccc1)C(=O)N[C@H](C(=O)N[C@@H](Cc1nnn[nH]1)C(=O)N[C@@H](CO)C(=O)N[C@@H](Cc1ccc(O)cc1)C(=O)N[C@@H](CO)C(=O)N[C@@H](CCCNC(=N)N)C(=O)N[C@@H](Cc1ccc(O)cc1)C(=O)N[C@@H](CCCNC(=N)N)C(=O)N[C@@H](CCCCN)C(=O)N[C@@H](C)C(=O)N[C@@H](C)C(=O)N[C@@H](C)C(=O)N[C@H](C(=O)N[C@@H](CCCCN)C(=O)N[C@@H](CCCCN)C(=O)N[C@@H](Cc1ccc(O)cc1)C(=O)N[C@@H](CC(C)C)C(=O)N[C@@H](C)C(=O)N[C@@H](C)C(=O)N[C@H](C(=O)N[C@@H](CC(C)C)C(N)=O)C(C)C)C(C)C)[C@@H](C)O [Peptide 34] (Ac-HS[Ala(1H-tetrazol-5-yl)]AIFT[Ala(1H-tetrazol-5-yl)]SYSRYRKAAAVKKYLAAVL-NH2)
–	0.04	0.08	HSXGIFTXSYSRYRKQLAVKKYLAAVA (N-terminal acetyl (Ac-); Tz (aspartic acid with carboxyl group replaced by tetrazole) at positions 3 and 8; C-terminal amide (NH2)) [Peptide 20]
–	0.044	0.094	HSXGIFTXSYSRYRKQLAAKKYLAAVL (N-terminal acetyl (Ac-); Tz (aspartic acid with carboxyl group replaced by tetrazole) at positions 3 and 8; C-terminal amide (NH2)) [Peptide 19]
–	0.033	0.061	HSXGIFTXSYSRYRKQAAVKKYLAAVL (N-terminal acetyl (Ac-); Tz (aspartic acid with carboxyl group replaced by tetrazole) at positions 3 and 8; C-terminal amide (NH2)) [Peptide 18]
–	0.065	0.33	HSXGIFTXSYARYRKQLAVKKYLAAVL (N-terminal acetyl (Ac-); Tz (aspartic acid with carboxyl group replaced by tetrazole) at positions 3 and 8; C-terminal amide (NH2)) [Peptide 16]
–	0.132	0.099	HSXGIFTXSYSRYRKALAVKKYLAAVL (N-terminal acetyl (Ac-); Tz (aspartic acid with carboxyl group replaced by tetrazole) at positions 3 and 8; C-terminal amide (NH2)) [Peptide 17]
–	0.149	0.061	HSXGIFTXAYSRYRKQLAVKKYLAAVL (N-terminal acetyl (Ac-); Tz (aspartic acid with carboxyl group replaced by tetrazole) at positions 3 and 8; C-terminal amide (NH2)) [Peptide 15]
–	0.099	0.074	HAXGIFTXSYSRYRKQLAVKKYLAAVL (N-terminal acetyl (Ac-); Tz (aspartic acid with carboxyl group replaced by tetrazole) at positions 3 and 8; C-terminal amide (NH2)) [Peptide 14]

Further lines, the molecule ahead of its results:

Molecule	remaining rate after correction for water, 60° C., 2 weeks preservation [1] [%]	EC50 (VPAC1R), cAMP inducing effect (VPAC1 receptor) [nM]	EC50 (PAC1R), cAMP inducing effect (PAC1 receptor) [nM]
HSXGIFTXSYSRYRKQLAVKKYLAAVL (N-terminal mesyl (Ms-); Tz (aspartic acid with carboxyl group replaced by tetrazole) at positions 3 and 8; C-terminal amide (NH2)) [Peptide 12]	–	0.087	0.023
HSDGIFTXSYSRYRKQMAVKKYLAAVL (Tz (aspartic acid with carboxyl group replaced by tetrazole) at position 8; C-terminal amide (NH2)) [Peptide 4]	–	0.053	0.04
HSXGIFTXSYSRYRKXLAVKKYLAAVL (N-terminal acetyl (Ac-); Tz (aspartic acid with carboxyl group replaced by tetrazole) at positions 3 and 8; egTz (glutamine with amide replaced by tetrazole) at position 16; C-terminal amide (NH2)) [Peptide 13]	–	0.072	0.132
HSXGIFTXSYSRYRKQMAVKKYLAAVL (N-terminal acetyl (Ac-); Tz (aspartic acid with carboxyl group replaced by tetrazole) at positions 3 and 8; C-terminal amide (NH2)) [Peptide 10]	–	0.101	0.076
HSXGIFTXSYSRYRKQMAVKKYLAAVL (Tz (aspartic acid with carboxyl group replaced by tetrazole) at positions 3 and 8; C-terminal amide (NH2)) [Peptide 5]	–	0.064	0.033
HSXGIFTXSYSRYRKQXAVKKYLAAVL (N-terminal mesyl (Ms-); Tz (aspartic acid with carboxyl group replaced by tetrazole) at positions 3 and 8; norleucine at position 17; C-terminal amide (NH2)) [Peptide 11]	–	0.19	0.038
HSXGIFTDSYSRYRKQMAVKKYLAAVL (Tz (aspartic acid with carboxyl group replaced by tetrazole) at position 3; C-terminal amide (NH2)) [Peptide 3]	–	0.101	–
